Molecular target: LexA408-DBD-iLight V464L-msfGFP (E. coli; Idiomarina sp.)
Experiment: cell-based or functional assay

- inhibition efficiency of the gene expression (mCherry reporter, E. coli, 660 nm): 1.6 fold
Substance: LexA408-DBD-iLight V464L-msfGFP

From patent US20240254458A1
